Experimental data taken from patent publication US6077680A (The University of Florida, dated 2000).
Where two headings read alike, the source gives them in different places.

Tests used:
Kv1.3 = Kv1.3 (Mus musculus, UniProt P16390); experiment: cell-based; assay type: cell-based
[1] = tested on: rat brain membrane K channels (primarily Kv1.2); assay type: binding; details: for IC50: read-out: IC50 Rat Brain 125I-CTX
[2] = molecular target: Kv1.3 potassium channels in Jurkat T lymphocytes (Homo sapiens, UniProt P22001); assay type: cell-based
[3] = molecular target: rat brain membrane K channels (delayed rectifier, primarily Kv1.2) (rat) (UniProt P63142); experiment: 125I-DTX displacement, rat brain membranes
[4] = molecular target: rat brain membrane K channels (delayed rectifier, primarily Kv1.2) (rat) (UniProt P63142)
[5] = molecular target: rat brain membrane K channels (delayed rectifier, primarily Kv1.2) (rat) (UniProt P63142); remark: listed apart in the source
[6] = molecular target: rat brain membrane K channels (delayed rectifier, primarily Kv1.2) (rat) (UniProt P63142); remark: listed apart in the source
[7] = molecular target: Kv1.3 potassium channel of human T lymphocytes (human) (UniProt P22001)
[8] = molecular target: rat brain membrane K channels (delayed rectifier, primarily Kv1.2) (rat) (UniProt P63142); remark: listed apart in the source
[9] = molecular target: rat brain membrane K channels (delayed rectifier, primarily Kv1.2) (rat) (UniProt P63142); remark: listed apart in the source
[10] = molecular target: cloned Kv1.3 channel, wild type
[11] = molecular target: rat brain membrane K channels (delayed rectifier, primarily Kv1.2) (rat) (UniProt P63142); experiment: radioligand displacement, rat brain membranes
[12] = molecular target: rat brain membrane K channels (delayed rectifier, primarily Kv1.2) (rat) (UniProt P63142); remark: listed apart in the source
[13] = molecular target: IKCa channel of activated human T-cells (human) (UniProt O15554); experiment: whole-cell patch clamp block, activated human T-cells
[14] = molecular target: Kv1.3 potassium channel of human T lymphocytes (human, UniProt P22001); experiment: 125I-ChTX displacement, Jurkat T lymphocytes
[15] = molecular target: rat brain membrane K channels (delayed rectifier, primarily Kv1.2) (rat) (UniProt P63142); experiment: 125I-dendrotoxin displacement assay

Chain of rat brain membrane K channels (delayed rectifier, primarily Kv1.2) (rat) (P63142 whole entry): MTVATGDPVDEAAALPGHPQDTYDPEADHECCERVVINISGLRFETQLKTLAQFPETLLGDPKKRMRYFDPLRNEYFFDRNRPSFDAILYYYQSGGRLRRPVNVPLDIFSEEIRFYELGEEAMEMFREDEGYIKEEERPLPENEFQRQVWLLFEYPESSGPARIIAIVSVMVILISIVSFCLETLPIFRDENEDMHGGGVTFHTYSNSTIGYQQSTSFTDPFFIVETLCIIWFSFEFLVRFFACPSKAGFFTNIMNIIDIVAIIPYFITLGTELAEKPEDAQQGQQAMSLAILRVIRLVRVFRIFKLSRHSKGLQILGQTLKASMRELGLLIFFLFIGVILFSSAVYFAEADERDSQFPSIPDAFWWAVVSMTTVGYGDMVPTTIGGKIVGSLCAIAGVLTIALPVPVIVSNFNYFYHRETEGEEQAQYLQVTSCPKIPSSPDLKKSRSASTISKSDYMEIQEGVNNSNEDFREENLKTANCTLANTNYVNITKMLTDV
Chain of Kv1.3 potassium channels in Jurkat T lymphocytes (P22001 whole entry): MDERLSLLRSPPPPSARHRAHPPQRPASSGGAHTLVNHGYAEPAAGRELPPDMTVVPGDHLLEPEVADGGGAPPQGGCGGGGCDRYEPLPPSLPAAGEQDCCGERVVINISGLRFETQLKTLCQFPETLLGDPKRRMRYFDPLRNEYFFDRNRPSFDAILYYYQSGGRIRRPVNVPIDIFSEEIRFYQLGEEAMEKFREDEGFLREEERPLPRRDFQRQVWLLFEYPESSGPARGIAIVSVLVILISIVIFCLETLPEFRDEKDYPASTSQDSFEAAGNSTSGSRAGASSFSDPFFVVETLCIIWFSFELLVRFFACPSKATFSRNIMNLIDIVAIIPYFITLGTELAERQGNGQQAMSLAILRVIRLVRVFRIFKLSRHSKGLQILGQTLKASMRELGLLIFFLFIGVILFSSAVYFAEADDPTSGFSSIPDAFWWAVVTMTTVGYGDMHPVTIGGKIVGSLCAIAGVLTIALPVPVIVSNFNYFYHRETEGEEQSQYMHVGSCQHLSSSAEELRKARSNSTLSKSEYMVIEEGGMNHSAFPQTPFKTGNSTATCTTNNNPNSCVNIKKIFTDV
Chain of Kv1.3 potassium channel of human T lymphocytes (human) (P22001 whole entry): as above
Chain of Kv1.3 (P16390 whole entry): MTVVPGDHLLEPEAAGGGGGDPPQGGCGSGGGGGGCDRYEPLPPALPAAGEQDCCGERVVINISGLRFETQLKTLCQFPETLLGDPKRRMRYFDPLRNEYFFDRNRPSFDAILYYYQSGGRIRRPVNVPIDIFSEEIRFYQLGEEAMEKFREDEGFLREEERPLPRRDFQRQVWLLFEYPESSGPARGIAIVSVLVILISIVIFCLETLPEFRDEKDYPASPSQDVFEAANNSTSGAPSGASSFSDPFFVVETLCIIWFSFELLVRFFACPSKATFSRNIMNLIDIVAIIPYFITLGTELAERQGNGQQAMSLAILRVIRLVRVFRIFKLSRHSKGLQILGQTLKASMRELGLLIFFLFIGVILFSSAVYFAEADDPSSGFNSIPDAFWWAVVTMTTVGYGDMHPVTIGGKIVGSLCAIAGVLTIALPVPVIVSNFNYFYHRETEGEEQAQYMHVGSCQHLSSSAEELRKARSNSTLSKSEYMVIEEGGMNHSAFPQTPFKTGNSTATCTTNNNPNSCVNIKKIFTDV

CC[C@H](C)[C@@H]1NC(=O)[C@@H](NC(=O)[C@H](CO)NC(=O)[C@@H](N)CCCNC(=N)N)CSSC[C@@H](C(=O)O)NC(=O)[C@H]([C@@H](C)O)NC(=O)CNC(=O)[C@@H]2CSSC[C@@H]3NC(=O)[C@H](CCC(N)=O)NC(=O)[C@H](Cc4ccccc4)NC(=O)[C@H](C)NC(=O)[C@H]([C@@H](C)O)NC(=O)[C@H](CSSC[C@H](NC(=O)[C@H](Cc4ccccc4)NC(=O)[C@H](CO)NC(=O)[C@H](CC(C)C)NC(=O)[C@H](CCCNC(=N)N)NC(=O)[C@H](Cc4ccc(O)cc4)NC(=O)[C@H](CCCCNC(N)=O)NC(=O)[C@H](CCSC)NC(=O)[C@H](CO)NC(=O)[C@H](Cc4c[nH]cn4)NC(=O)[C@H](CCCCN)NC3=O)C(=O)N[C@@H](CCCNC(=N)N)C(=O)N[C@@H](CCCCN)C(=O)N[C@@H]([C@@H](C)O)C(=O)N2)NC(=O)[C@H](CCCNC(=N)N)NC(=O)[C@H](CO)NC(=O)[C@H](CCCCN)NC(=O)[C@@H]2CCCN2C(=O)[C@H]([C@@H](C)CC)NC(=O)[C@H]([C@@H](C)O)NC(=O)[C@H](CC(=O)O)NC1=O [K22Homocit] was tested, and the Kd (Kv1.3; read-out: Kd) was > 100 nM.

For CC[C@H](C)[C@@H]1NC(=O)[C@@H](NC(=O)[C@H](CO)NC(=O)[C@@H](N)CCCNC(=N)N)CSSC[C@@H](C(=O)O)NC(=O)[C@H]([C@@H](C)O)NC(=O)CNC(=O)[C@@H]2CSSC[C@@H]3NC(=O)[C@H](CCC(N)=O)NC(=O)[C@H](Cc4ccccc4)NC(=O)[C@H](C)NC(=O)[C@H]([C@@H](C)O)NC(=O)[C@H](CSSC[C@H](NC(=O)[C@H](Cc4ccccc4)NC(=O)[C@H](CO)NC(=O)[C@H](CC(C)C)NC(=O)[C@H](CCCNC(=N)N)NC(=O)[C@H](Cc4ccc(O)cc4)NC(=O)[C@H](CCCN)NC(=O)[C@H](CCSC)NC(=O)[C@H](CO)NC(=O)[C@H](Cc4c[nH]cn4)NC(=O)[C@H](CCCCN)NC3=O)C(=O)N[C@@H](CCCNC(=N)N)C(=O)N[C@@H](CCCCN)C(=O)N[C@@H]([C@@H](C)O)C(=O)N2)NC(=O)[C@H](CCCNC(=N)N)NC(=O)[C@H](CO)NC(=O)[C@H](CCCCN)NC(=O)[C@@H]2CCCN2C(=O)[C@H]([C@@H](C)CC)NC(=O)[C@H]([C@@H](C)O)NC(=O)[C@H](CC(=O)O)NC1=O [K22Orn], the “Equipotent Molar Ration (Analog IC50 /ShK IC50) Rat brain” value [1] was 1.7, the “IC50 Ratio” value [1] was 1.2 and the “binding affinity for rat brain K channels relative to wild-type ShK toxin, in words” value [1] was “little effect”. The “reduction of apparent affinity” value [1] was “about 120%”, the ΔF [1] was 0.11 and the IC50 [1] was 20 nM. The Kd (Kv1.3) was 2 ± 1 nM, the “Equipotent Molar Ration (Analog IC50 /ShK IC50) Lymphocyte” value [2] was 1.2 and the “reduction of affinity (IC50) for Kv1.3 relative to ShK toxin” value [2] was “only slightly reduced (two times)”.

CC[C@H](C)[C@@H]1NC(=O)[C@@H](NC(=O)[C@H](CO)NC(=O)[C@@H](N)CCCNC(=N)N)CSSC[C@@H](C(=O)O)NC(=O)[C@H]([C@@H](C)O)NC(=O)CNC(=O)[C@@H]2CSSC[C@@H]3NC(=O)[C@H](CCC(N)=O)NC(=O)[C@H](Cc4ccccc4)NC(=O)[C@H](C)NC(=O)[C@H]([C@@H](C)O)NC(=O)[C@H](CSSC[C@H](NC(=O)[C@H](Cc4ccccc4)NC(=O)[C@H](CO)NC(=O)[C@H](CC(C)C)NC(=O)[C@H](CCCNC(=N)N)NC(=O)[C@H](Cc4ccc(O)cc4)NC(=O)[C@H](CCCNC(=N)N)NC(=O)[C@H](CCSC)NC(=O)[C@H](CO)NC(=O)[C@H](Cc4c[nH]cn4)NC(=O)[C@H](CCCCN)NC3=O)C(=O)N[C@@H](CCCNC(=N)N)C(=O)N[C@@H](CCCCN)C(=O)N[C@@H]([C@@H](C)O)C(=O)N2)NC(=O)[C@H](CCCNC(=N)N)NC(=O)[C@H](CO)NC(=O)[C@H](CCCCN)NC(=O)[C@@H]2CCCN2C(=O)[C@H]([C@@H](C)CC)NC(=O)[C@H]([C@@H](C)O)NC(=O)[C@H](CC(=O)O)NC1=O [K22R] was tested, and the “Equipotent Molar Ration (Analog IC50 /ShK IC50) Rat brain” value [1] was > 500, the “IC50 Ratio” value [1] was > 500 and the ΔF [1] was > 3.65. The IC50 [1] was 2000 nM, the “Equipotent Molar Ration (Analog IC50 /ShK IC50) Lymphocyte” value [2] was 225 and the “reduction of affinity (IC50) for Kv1.3 relative to ShK toxin” value [2] was > 225 fold.

In the case of CCCC[C@@H]1NC(=O)[C@H](CO)NC(=O)[C@H](Cc2c[nH]cn2)NC(=O)[C@H](CCCCN)NC(=O)[C@@H]2CSSC[C@@H]3NC(=O)[C@H]([C@@H](C)O)NC(=O)[C@H](CCCCN)NC(=O)[C@H](CCCNC(=N)N)NC(=O)[C@H](CSSC[C@H](NC(=O)[C@H](CCCNC(=N)N)NC(=O)[C@H](CO)NC(=O)[C@H](CCCCN)NC(=O)[C@@H]4CCCN4C(=O)[C@H]([C@@H](C)CC)NC(=O)[C@H]([C@@H](C)O)NC(=O)[C@H](CC(=O)O)NC(=O)[C@H]([C@@H](C)CC)NC(=O)[C@@H](NC(=O)[C@H](CO)NC(=O)[C@@H](N)CCCNC(=N)N)CSSC[C@@H](C(=O)O)NC(=O)[C@H]([C@@H](C)O)NC(=O)CNC3=O)C(=O)N[C@@H]([C@@H](C)O)C(=O)N[C@@H](C)C(=O)N[C@@H](Cc3ccccc3)C(=O)N[C@@H](CCC(N)=O)C(=O)N2)NC(=O)[C@H](Cc2ccccc2)NC(=O)[C@H](CO)NC(=O)[C@H](CC(C)C)NC(=O)[C@H](CCCNC(=N)N)NC(=O)[C@H](Cc2ccc(O)cc2)NC(=O)[C@H](CCCCN)NC1=O [M21Nle], the “Equipotent Molar Ration (Analog IC50 /ShK IC50) Rat brain” value [1] is reported as 0.8, the “effect on binding to either K channel subtype” value [1] is reported as “no significant affect on binding” and the IC50 [1] is reported as 9 nM. For the same molecule, the “Equipotent Molar Ration (Analog IC50 /ShK IC50) Lymphocyte” value [2] was 0.80.

With ShK A15 + A25 (peptide) the IC50 ratio (analog IC50/ShK IC50) [3] was 2.1, the free energy difference of binding [3] was 0.43 kcal/mol and the IC50 ratio (analog IC50/ShK IC50) [4] was 2.1. The free energy difference of binding [4] was 0.43 kcal/mol.

ShK F27Cha (peptide) gave an IC50 ratio (analog IC50/ShK IC50) [5] of 0.7, a free energy difference of binding [5] of -0.21 kcal/mol and an IC50 ratio (analog IC50/ShK IC50) [3] of 0.7. For the same molecule, the free energy difference of binding [3] was -0.21 kcal/mol.

Work on ShK K9E (analog 104) (peptide) yielded an IC50 ratio (analog IC50/ShK IC50) [6] of 3.57.

ShK K9Q (peptide) gave an equipotent molar ratio (analog IC50/ShK IC50) for block of Kv1.3 current [7] of 9.6, an IC50 ratio (analog IC50/ShK IC50) [3] of 0.6 and an IC50 [8] of 11 nM.

ShK K22 citrulline (peptide) showed an IC50 [8] of 2000 nM.

ShK K22Homocit (peptide) was tested, and the IC50 ratio (analog IC50/ShK IC50) [9] was > 500, the free energy difference of binding [9] was > 3.65 kcal/mol and the Kd [10] was > 100 nM. For the same molecule, the IC50 ratio (analog IC50/ShK IC50) [3] was > 500.

ShK K22Nle (peptide) was tested, and the IC50 ratio (analog IC50/ShK IC50) [9] was > 250, the free energy difference of binding [9] was > 3.23 kcal/mol and the equipotent molar ratio (analog IC50/ShK IC50) for block of Kv1.3 current [7] was > 23. For the same molecule, the IC50 ratio (analog IC50/ShK IC50) [3] was > 250.

In the case of ShK K22Orn (peptide), the IC50 ratio (analog IC50/ShK IC50) [9] is reported as 1.2, the free energy difference of binding [9] is reported as 0.11 kcal/mol and the reduction of apparent affinity [11] is reported as 120%. The Kd [10] was 2 nM, the equipotent molar ratio (analog IC50/ShK IC50) for block of Kv1.3 current [7] was 1.2 and the IC50 ratio (analog IC50/ShK IC50) [3] was 1.7. The IC50 [8] was 20 nM.

Molecule ShK M21Nle (peptide) has an equipotent molar ratio (analog IC50/ShK IC50) for block of Kv1.3 current [7] of 0.8, an IC50 ratio (analog IC50/ShK IC50) [3] of 0.8 and an IC50 [8] of 9 nM.

Molecule ShK R1S (peptide) has an equipotent molar ratio (analog IC50/ShK IC50) for block of Kv1.3 current [7] of 0.92, an IC50 ratio (analog IC50/ShK IC50) [3] of 1.5 and an IC50 [8] of 16 nM.

Work on ShK Y23Apa (peptide) yielded a Kd [10] of 0.12 nM, an IC50 ratio (analog IC50/ShK IC50) [3] of 0.8 and an IC50 ratio (analog IC50/ShK IC50) [12] of 0.8. For the same molecule, the free energy difference of binding [12] was -0.13 kcal/mol.

In the case of ShK Y23Bpa (peptide), the IC50 ratio (analog IC50/ShK IC50) [12] is reported as 3.76 and the free energy difference of binding [12] is reported as 0.78 kcal/mol.

In the case of ShK Y23Cha (peptide), the IC50 ratio (analog IC50/ShK IC50) [3] is reported as 8.8, the free energy difference of binding [3] is reported as 1.27 kcal/mol and the IC50 ratio (analog IC50/ShK IC50) [12] is reported as 8.8. For the same molecule, the free energy difference of binding [12] was 1.27 kcal/mol.

For ShK Y23Nph (peptide), the Kd [10] was 0.2 nM, the IC50 ratio (analog IC50/ShK IC50) [3] was 1 and the IC50 ratio (analog IC50/ShK IC50) [12] was 1. It also gave a free energy difference of binding [12] of 0 kcal/mol.

With ShK desR1-S2 (peptide) the IC50 ratio (analog IC50/ShK IC50) [5] was 2.54, the free energy difference of binding [5] was 0.54 kcal/mol and the IC50 ratio (analog IC50/ShK IC50) [3] was 2.5. For the same molecule, the free energy difference of binding [3] was 0.54 kcal/mol.

“ShK-K22DAP (peptide; other documents disagree on this pair)” was tested, and the Kd [13] was > 100 nM.

SSCIDTIPKSRCTAFQCKHSMKYRLSFCRKTCGTC [ShK R1S] gave an IC50 [14] of 0.05 nM.

In the case of RSCIDTIPQSRCTAFQCKHSMKYRLSFCRKTCGTC [ShK K9Q], the IC50 [14] is reported as 0.31 nM.

For KSRCTAFQCKHSXKYRLSFCRKTC (norleucine at position 21) [bicyclic truncated ShK analog of Example 14 (Cys12-Cys28, Cys17-Cys32)], the IC50 ratio (analog IC50/ShK IC50) [15] was 1360.

For KSRCTAFQCKHSXKYRLSFCRKTC (norleucine at position 21; Cys12 and Cys28 S-acetamidomethyl (Acm)) [monocyclic truncated ShK analog of Example 14 (Cys17-Cys32)], the IC50 ratio (analog IC50/ShK IC50) [15] was > 3000.
